Measurements from patent publication US20140274782A1, “AFFINITY REAGENTS AND METHODS FOR DETECTION, PURIFICATION, AND PROTEOMIC ANALYSIS OF METHYLATED PROTEINS” (The Board of Trustees of the Leland Stanford Junior …, priority 2013, published 2014).

T1: G9a and GLP (Homo sapiens, UniProt Q96KQ7+Q9H9B1)
T1 sequence (Q96KQ7 2-1210 limits assumed): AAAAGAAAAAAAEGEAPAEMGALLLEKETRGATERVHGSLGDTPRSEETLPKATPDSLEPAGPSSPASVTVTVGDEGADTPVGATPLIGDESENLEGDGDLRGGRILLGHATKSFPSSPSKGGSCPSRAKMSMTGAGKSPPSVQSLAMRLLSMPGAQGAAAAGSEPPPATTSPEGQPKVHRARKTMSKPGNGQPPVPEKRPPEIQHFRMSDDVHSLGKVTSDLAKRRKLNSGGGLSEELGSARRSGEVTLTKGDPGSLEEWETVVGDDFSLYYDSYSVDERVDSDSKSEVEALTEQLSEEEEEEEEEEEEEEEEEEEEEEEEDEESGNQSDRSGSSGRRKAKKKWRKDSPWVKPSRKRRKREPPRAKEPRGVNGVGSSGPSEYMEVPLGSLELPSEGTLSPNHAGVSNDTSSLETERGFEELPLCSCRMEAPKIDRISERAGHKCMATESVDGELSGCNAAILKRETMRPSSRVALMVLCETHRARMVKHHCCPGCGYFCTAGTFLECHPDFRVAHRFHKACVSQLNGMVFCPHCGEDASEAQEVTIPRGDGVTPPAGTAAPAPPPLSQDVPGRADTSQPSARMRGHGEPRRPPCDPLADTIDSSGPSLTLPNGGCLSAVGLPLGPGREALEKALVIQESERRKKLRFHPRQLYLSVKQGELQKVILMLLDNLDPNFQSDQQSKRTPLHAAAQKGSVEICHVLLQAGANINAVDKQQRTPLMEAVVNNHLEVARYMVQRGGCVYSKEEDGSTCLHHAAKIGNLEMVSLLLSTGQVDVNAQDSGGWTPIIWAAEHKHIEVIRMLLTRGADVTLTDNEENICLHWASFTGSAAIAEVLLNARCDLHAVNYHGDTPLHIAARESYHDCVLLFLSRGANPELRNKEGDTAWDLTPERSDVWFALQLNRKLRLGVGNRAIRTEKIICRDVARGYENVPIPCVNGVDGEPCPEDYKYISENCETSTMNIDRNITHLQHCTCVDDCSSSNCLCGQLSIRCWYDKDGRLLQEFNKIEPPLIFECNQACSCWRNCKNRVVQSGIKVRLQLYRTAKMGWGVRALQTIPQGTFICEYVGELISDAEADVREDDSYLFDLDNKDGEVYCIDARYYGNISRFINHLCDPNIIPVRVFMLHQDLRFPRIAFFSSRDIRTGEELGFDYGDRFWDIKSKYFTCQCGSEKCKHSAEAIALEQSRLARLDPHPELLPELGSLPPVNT
T1 sequence (Q9H9B1 2-1298 limits assumed): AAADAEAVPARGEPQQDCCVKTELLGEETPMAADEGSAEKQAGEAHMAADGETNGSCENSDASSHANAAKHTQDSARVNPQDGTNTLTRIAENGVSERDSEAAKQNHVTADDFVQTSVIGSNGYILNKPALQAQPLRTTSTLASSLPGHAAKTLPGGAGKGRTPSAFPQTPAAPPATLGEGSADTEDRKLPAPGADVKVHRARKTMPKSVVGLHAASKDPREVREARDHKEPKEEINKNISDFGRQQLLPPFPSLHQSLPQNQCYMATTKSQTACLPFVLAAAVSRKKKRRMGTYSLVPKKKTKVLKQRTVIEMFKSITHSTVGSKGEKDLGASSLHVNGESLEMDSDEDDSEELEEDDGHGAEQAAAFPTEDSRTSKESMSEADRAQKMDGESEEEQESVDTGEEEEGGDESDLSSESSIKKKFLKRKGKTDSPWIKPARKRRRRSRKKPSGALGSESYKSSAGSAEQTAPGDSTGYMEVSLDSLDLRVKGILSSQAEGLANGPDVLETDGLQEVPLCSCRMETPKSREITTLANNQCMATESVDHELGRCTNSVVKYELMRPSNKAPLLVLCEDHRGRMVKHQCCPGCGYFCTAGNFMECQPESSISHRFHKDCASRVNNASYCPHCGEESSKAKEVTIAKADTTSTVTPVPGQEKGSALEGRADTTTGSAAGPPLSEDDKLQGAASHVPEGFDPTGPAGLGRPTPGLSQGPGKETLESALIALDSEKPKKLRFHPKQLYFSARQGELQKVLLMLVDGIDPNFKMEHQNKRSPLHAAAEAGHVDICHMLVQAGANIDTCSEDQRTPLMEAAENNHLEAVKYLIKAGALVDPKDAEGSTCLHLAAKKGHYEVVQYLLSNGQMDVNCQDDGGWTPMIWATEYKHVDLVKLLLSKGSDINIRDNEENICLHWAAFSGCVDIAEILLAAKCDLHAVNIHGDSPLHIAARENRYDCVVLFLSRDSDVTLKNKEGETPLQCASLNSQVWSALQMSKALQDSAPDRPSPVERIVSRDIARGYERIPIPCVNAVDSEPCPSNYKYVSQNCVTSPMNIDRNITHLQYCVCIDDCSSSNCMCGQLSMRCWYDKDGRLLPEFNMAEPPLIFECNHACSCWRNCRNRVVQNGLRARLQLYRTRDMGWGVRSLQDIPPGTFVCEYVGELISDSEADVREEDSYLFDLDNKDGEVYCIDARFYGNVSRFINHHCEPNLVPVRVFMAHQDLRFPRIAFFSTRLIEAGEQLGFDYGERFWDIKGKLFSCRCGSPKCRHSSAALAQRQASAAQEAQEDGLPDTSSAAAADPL

B1: PRPF19 (protein, UniProt Q9UMS4 2-504, looked up)
Pre-mRNA-processing factor 19: SLICSISNEVPEHPCVSPVSNHVYERRLIEKYIAENGTDPINNQPLSEEQLIDIKVAHPIRPKPPSATSIPAILKALQDEWDAVMLHSFTLRQQLQTTRQELSHALYQHDAACRVIARLTKEVTAAREALATLKPQAGLIVPQAVPSSQPSVVGAGEPMDLGELVGMTPEIIQKLQDKATVLTTERKKRGKTVPEELVKPEELSKYRQVASHVGLHSASIPGILALDLCPSDTNKILTGGADKNVVVFDKSSEQILATLKGHTKKVTSVVFHPSQDLVFSASPDATIRIWSVPNASCVQVVRAHESAVTGLSLHATGDYLLSSSDDQYWAFSDIQTGRVLTKVTDETSGCSLTCAQFHPDGLIFGTGTMDSQIKIWDLKERTNVANFPGHSGPITSIAFSENGYYLATAADDSSVKLWDLRKLKNFKTLQLDNNFEVKSLIFDQSGTYLALGGTDVQIYICKQWTEILHFTEHSGLTTGVAFGHHAKFIASTGMDRSLKFYSL
B2: LRWD1 (protein, UniProt Q9UFC0 1-647, looked up)
Leucine-rich repeat and WD …: MGPLSARLLMQRGRPKSDRLGKIRSLDLSGLELLSEHLDPKLLCRLTQLQELDLSNNHLETLPDNLGLSHLRVLRCANNQLGDVTALCQFPKLEELSLEGNPFLTVNDNLKVSFLLPTLRKVNGKDASSTYSQVENLNRELTSRVTAHWEKFMATLGPEEEAEKAQADFVKSAVRDVRYGPESLSEFTQWRVRMISEELVAASRTQVQKANSPEKPPEAGAAHKPRARLAALKRPDDVPLSLSPSKRACASPSAQVEGSPVAGSDGSQPAVKLEPLHFLQCHSKNNSPQDLETQLWACAFEPAWEEGATSQTVATCGGEAVCVIDCQTGIVLHKYKAPGEEFFSVAWTALMVVTQAGHKKRWSVLAAAGLRGLVRLLHVRAGFCCGVIRAHKKAIATLCFSPAHETHLFTASYDKRIILWDIGVPNQDYEFQASQLLTLDTTSIPLRLCPVASCPDARLLAGCEGGCCCWDVRLDQPQKRRVCEVEFVFSEGSEASGRRVDGLAFVNEDIVASKGSGLGTICLWSWRQTWGGRGSQSTVAVVVLARLQWSSTELAYFSLSACPDKGIVLCGDEEGNVWLYDVSNILKQPPLLPAALQAPTQILKWPQPWALGQVVTKTMVNTVVANASFTYLTALTDSNIVAIWGRM
B3: SRBD1 (protein, UniProt Q8N5C6 1-995, looked up)
S1 RNA-binding …: MSSLPRRAKVQVQDVVLKDEFSSFSELSSASEEDDKEDSAWEPQKKVPRSRKQPPPKESKPKRMPRVKKNAPQISDGSEVVVVKEELNSSVAIADTALEDRKNKLDTVQTLKTAKTKQKCAAQPHTVRRTKKLKVEEETSKASNLEGESNSSETPSTSTVWGGTCKKEENDDDFTFGQSALKKIKTETYPQGQPVKFPANANSTKEEVEMNWDMVQVLSERTNIEPWVCANIIRLFNDDNTIPFIIRYRKELINNLDADSLREVQQTLEELRAVAKKVHSTIQKIKKEGKMSECLLKAMLNCKTFEELEHVSAPYKTGSKGTKAQRARQLGLEGAARALLEKPGELSLLSYIRPDVKGLSTLQDIEIGVQHILADMIAKDKDTLDFIRNLCQKRHVCIQSSLAKVSSKKVNEKDVDKFLLYQHFSCNIRNIHHHQILAINRGENLKVLTVKVNISDGVKDEFCRWCIQNRWRPRSFARPELMKILYNSLNDSFKRLIYPLLCREFRAKLTSDAEKESVMMFGRNLRQLLLTSPVPGRTLMGVDPGYKHGCKLAIISPTSQILHTDVVYLHCGQGFREAEKIKTLLLNFNCSTVVIGNGTACRETEAYFADLIMKNYFAPLDVVYCIVSEAGASIYSVSPEANKEMPGLDPNLRSAVSIARRVQDPLAELVKIEPKHIGVGMYQHDVSQTLLKATLDSVVEECVSFVGVDINICSEVLLRHIAGLNANRAKNIIEWREKNGPFINREQLKKVKGLGPKSFQQCAGFIRINQDYIRTFCSQQTETSGQIQGVAVTSSADVEVTNEKQGKKKSKTAVNVLLKPNPLDQTCIHPESYDIAMRFLSSIGGTLYEVGKPEMQQKINSFLEKEGMEKIAERLQTTVHTLQVIIDGLSQPESFDFRTDFDKPDFKRSIVCLEDLQIGTVLTGKVENATLFGIFVDIGVGKSGLIPIRNVTEAKLSKTKKRRSLGLGPGERVEVQVLNIDIPRSRITLDLIRVL
B4: CSDE1 (protein, UniProt O75534 1-798, looked up)
Cold shock domain-containing …: MSFDPNLLHNNGHNGYPNGTSAALRETGVIEKLLTSYGFIQCSERQARLFFHCSQYNGNLQDLKVGDDVEFEVSSDRRTGKPIAVKLVKIKQEILPEERMNGQVVCAVPHNLESKSPAAPGQSPTGSVCYERNGEVFYLTYTPEDVEGNVQLETGDKINFVIDNNKHTGAVSARNIMLLKKKQARCQGVVCAMKEAFGFIERGDVVKEIFFHYSEFKGDLETLQPGDDVEFTIKDRNGKEVATDVRLLPQGTVIFEDISIEHFEGTVTKVIPKVPSKNQNDPLPGRIKVDFVIPKELPFGDKDTKSKVTLLEGDHVRFNISTDRRDKLERATNIEVLSNTFQFTNEAREMGVIAAMRDGFGFIKCVDRDVRMFFHFSEILDGNQLHIADEVEFTVVPDMLSAQRNHAIRIKKLPKGTVSFHSHSDHRFLGTVEKEATFSNPKTTSPNKGKEKEAEDGIIAYDDCGVKLTIAFQAKDVEGSTSPQIGDKVEFSISDKQRPGQQVATCVRLLGRNSNSKRLLGYVATLKDNFGFIETANHDKEIFFHYSEFSGDVDSLELGDMVEYSLSKGKGNKVSAEKVNKTHSVNGITEEADPTIYSGKVIRPLRSVDPTQTEYQGMIEIVEEGDMKGEVYPFGIVGMANKGDCLQKGESVKFQLCVLGQNAQTMAYNITPLRRATVECVKDQFGFINYEVGDSKKLFFHVKEVQDGIELQAGDEVEFSVILNQRTGKCSACNVWRVCEGPKAVAAPRPDRLVNRLKNITLDDASAPRLMVLRQPRGPDNSMGFGAERKIRQAGVID

Key:
G9a and GLP = target: T1, G9a and GLP; assay: Triple SILAC pull-down after UNC0638 treatment of 293T cells, DMSO/UNC0638 ratio of protein captured by 3×MBT; type: cell-based; set-up: endogenous in cells; host or cells: HEK 293T; conditions: for Relative to UNC0638 UNC Heavy / Relative to UNC0638 UNC Light: SILAC ratio DMSO/UNC0638 of protein pulled down with 3xMBT; for Relative to UNC0638 UNC Heavy: UNC0638 in heavy SILAC media; for Relative to UNC0638 UNC Light: UNC0638 in light SILAC media; for Relative to UNC0638 Average: average of UNC Light and UNC Heavy experiments;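 on all read-outs here: mass spectrometry (Q-Exactive) SILAC quantitation, DMSO/UNC0638 ratio computed after subtracting 3×MBTD355N mutant pull-down background, only proteins with at least twofold 3×MBT over mutant signal considered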
3×MBT domain of L3MBTL1 = assay: Triple SILAC pull-down, 3xMBT/3xMBTD355N ratio (cytoplasmic, nuclear and chromatin fractions of 293T cells); type: binding, human; conditions: SILAC ratio, pull-down 3xMBT vs 3xMBTD355N; for 3xMBT/D355N UNC Heavy: experiment with UNC0638 in heavy SILAC media; for 3xMBT/D355N UNC Light: experiment with UNC0638 in light SILAC media;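 on all read-outs here: proteins quantified with MaxQuant, requiring at least two unique peptides and quantification in both label directions, normalized to the mean of proteins from a digested loading control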

Molecule | Relative to UNC0638 UNC Heavy (G9a and GLP) [log base 2] | Relative to UNC0638 UNC Light (G9a and GLP) [log base 2] | Relative to UNC0638 Average (G9a and GLP) [log base 2] | 3xMBT/D355N UNC Heavy (3×MBT domain of L3MBTL1) [log base 2] | 3xMBT/D355N UNC Light (3×MBT domain of L3MBTL1) [log base 2]
B1 | 0.39 | −0.15 | 0.12 | 2.05 | 1.97
B2 | 0.01 | 0.25 | 0.13 | 2.59 | 2.64
B3 | −0.13 | 0.37 | 0.12 | 1.02 | 1.29
B4 | 0.16 | 0.08 | 0.12 | 2.33 | 2.17
